Patent US7960513B2, “Antibody against a human ADAM protease” (Monash University, priority 2004, dated 2011)

T1: EphA3/ephrin-A5 complex on cells (cell-surface EphA3 with pre-clustered ephrin-A5-Fc), P29320
T1 chain 1: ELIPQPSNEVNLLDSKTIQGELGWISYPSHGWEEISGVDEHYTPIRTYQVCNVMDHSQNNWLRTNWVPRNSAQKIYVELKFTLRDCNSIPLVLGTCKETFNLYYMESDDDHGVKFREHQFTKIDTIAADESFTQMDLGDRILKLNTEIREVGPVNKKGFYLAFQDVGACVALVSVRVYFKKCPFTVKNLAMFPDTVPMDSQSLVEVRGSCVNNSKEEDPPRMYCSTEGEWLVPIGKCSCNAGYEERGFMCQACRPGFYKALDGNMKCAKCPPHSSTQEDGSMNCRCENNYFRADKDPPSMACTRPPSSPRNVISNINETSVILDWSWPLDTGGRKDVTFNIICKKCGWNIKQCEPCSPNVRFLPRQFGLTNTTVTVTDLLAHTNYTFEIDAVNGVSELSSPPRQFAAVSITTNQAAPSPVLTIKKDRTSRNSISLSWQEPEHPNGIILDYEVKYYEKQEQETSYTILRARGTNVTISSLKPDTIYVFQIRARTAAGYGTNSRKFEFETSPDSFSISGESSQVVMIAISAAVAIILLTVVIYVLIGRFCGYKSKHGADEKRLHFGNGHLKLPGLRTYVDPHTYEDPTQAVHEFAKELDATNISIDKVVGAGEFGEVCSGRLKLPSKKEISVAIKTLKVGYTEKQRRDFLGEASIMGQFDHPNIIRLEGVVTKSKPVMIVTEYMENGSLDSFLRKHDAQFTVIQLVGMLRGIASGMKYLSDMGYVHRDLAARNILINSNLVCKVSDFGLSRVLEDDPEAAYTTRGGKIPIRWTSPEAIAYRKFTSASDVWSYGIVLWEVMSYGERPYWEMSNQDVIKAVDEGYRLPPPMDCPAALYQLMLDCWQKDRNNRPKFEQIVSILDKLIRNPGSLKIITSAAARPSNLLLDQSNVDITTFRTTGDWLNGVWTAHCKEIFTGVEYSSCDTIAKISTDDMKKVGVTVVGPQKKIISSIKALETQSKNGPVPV
T1 chain 2: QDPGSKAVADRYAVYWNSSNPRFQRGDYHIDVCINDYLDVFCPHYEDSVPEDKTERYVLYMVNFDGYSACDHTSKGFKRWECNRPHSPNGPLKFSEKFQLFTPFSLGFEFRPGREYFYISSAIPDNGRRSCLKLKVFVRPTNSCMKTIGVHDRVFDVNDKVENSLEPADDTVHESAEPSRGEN

T2: EphA3/ephrin-A5 complex (Homo sapiens, UniProt P29320+P52803)
T2 construct: incubated with Fc-tagged ectodomains of Eph-A3, EphB2, EphB4 and ephrin-A2, ephrin-A5, ephrin-B2 (R&D systems)
T2 sequence (P29320 21-541 limits assumed): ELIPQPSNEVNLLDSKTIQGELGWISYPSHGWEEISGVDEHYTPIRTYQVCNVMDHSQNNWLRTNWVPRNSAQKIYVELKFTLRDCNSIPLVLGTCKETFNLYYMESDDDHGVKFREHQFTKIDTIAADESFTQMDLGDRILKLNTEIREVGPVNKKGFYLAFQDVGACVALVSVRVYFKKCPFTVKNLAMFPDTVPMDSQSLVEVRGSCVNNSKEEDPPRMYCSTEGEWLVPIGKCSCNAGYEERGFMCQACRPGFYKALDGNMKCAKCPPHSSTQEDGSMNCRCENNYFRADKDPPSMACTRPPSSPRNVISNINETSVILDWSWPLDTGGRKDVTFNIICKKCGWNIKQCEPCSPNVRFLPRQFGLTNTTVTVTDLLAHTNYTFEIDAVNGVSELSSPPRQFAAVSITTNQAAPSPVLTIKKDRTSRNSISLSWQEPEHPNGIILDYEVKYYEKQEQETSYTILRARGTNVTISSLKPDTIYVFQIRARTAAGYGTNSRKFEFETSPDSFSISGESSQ
T2 sequence (P52803 21-203 limits assumed): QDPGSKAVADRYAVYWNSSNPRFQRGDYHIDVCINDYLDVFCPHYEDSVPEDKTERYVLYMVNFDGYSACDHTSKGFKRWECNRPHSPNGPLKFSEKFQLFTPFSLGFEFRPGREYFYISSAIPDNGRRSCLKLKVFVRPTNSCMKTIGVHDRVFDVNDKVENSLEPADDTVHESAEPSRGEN


Key:
EphA3/HEK293 cells = assay: Ephrin-A5 cleavage and internalisation in EphA3-expressing cells treated with clustered ephrin-A5-Fc / ephrinA5-Fc beads; format: cell-based, human
Method: FIG. 1. EphA3-ADAM10 association, ephrin-A5 cleavage and ephrin internalisation. • A. Association of ADAM10 with EphA3 in LiBr melanoma cells and parental or stably transfected EphA3/HEK293 cells. The cells were treated with clustered ephrin-Fc (A5 or A2) or were left untreated (−) prior to lysis. Anti-EphA3 immunoprecipitates from lysates were analysed by Western blot for endogenous ADAM10 (“p” and “m” indicate the pro (unprocessed) and mature (processed) forms of ADAM10). Aliquots from immunoprecipitates were blotted for EphA3 levels to indicate loading (lower panel). […] EphA3/HEK293 or ephrin-A5/HEK293 cells were transfected to express HA-tagged ADAM10ΔPM. Western Blots of anti-HA immuno-precipitates were analysed with antibodies against ephrin-A5 and EphA3, parallel control samples with anti-ADAM10 antibodies. Lysates of ephrin-A5/HEK 293 cells were also extracted with Protein-A Sepharose-bound EphA3 Fc and analysed with anti-ephrin-A5 antibodies. • C. […] Pooled cell lysates and supernatants were pre-cleared with excess Protein-A Sepharose, cleaved ephrin-A5 was extracted using EphA3-Fc coupled to Protein-A Sepharose and analysed by anti-ephrin-A5 immuno-blot. Recombinant, monomeric, single-chain ephrin-A5 (Himanen et al., 2004, Nat Neurosci. 7 501-9; ephrin std) was analysed in parallel. • D. Ephrin-A5 cleavage and internalisation are inhibited by dominant-negative ADAM10. […]

[1] = target: T1, EphA3/ephrin-A5 complex on cells …
EphA3/ephrin-A5 complex = target: T2, EphA3/ephrin-A5 complex; assay: In vitro binding (Protein-A pull-down) assay; settings: EphA3-Fc plus untagged ephrin-A5
Method: Pull-down experiments were done as follows: ADAM10D+C, ADAM17D+C w.t. or the alanine mutants (˜15 μg) were incubated with Fc-tagged ectodomains of Eph-A3, EphB2, EphB4 and ephrin-A2, ephrin-A5, ephrin-B2 (R&D systems) at 4° C. for 30 min in 500 μL of binding buffer containing 10 mM HEPES (pH 7.4), 150 mM NaCl and 0.05% of Triton X-100. To test binding to the preformed EphA3/ephrin-A5 complex, 5 μg of the untagged ephrin-A5 was incubated with Fc tagged EphA3 for 30 min at 4° C. followed by the addition of ADAM10. The proteins were incubated for an additional 30 min., when Protein-A-Sepharose (Amersham) beads were added to the reaction mixture and shaken at 4° C. for 2h. The beads were then harvested by centrifugation, washed once with 500 μl of binding buffer and the bound proteins were separated on a 10-20% gradient polyacrylamide gel. The binding of the individual ADAM domains was carried out likewise using 15 μg of the disintegrin and 8 μg of the cysteine-rich domain.

binding to EphA3/ephrin-A5 complex (EphA3/ephrin-A5 complex)	Molecule	ephrin-A5 cleavage (cleaved ephrin-A5 recovered with EphA3-Fc, anti-ephrin-A5 Western blot) [1]	other results
	CC(C)C[C@H](CC(=O)NO)C(=O)N[C@@H](Cc1ccc2ccccc2c1)C(=O)N[C@@H](C)C(=O)NCCN [TAPI]		ephrin-A5 cleavage and internalisation (EphA3/HEK293 cells; pretreated with 50 μM TAPI1 (1h)): inhibited
	c1cnc2c(c1)ccc1cccnc12 [1,10-O-Phenanthroline]		ephrin-A5 cleavage and internalisation (EphA3/HEK293 cells; pretreated with 1 mM OPN (4h)): inhibited
	full-length ADAM10[EEE-A] (protein) TTVAEKNTCQLYIQTDHLFFKYYGTREAVIAQISSHVKAIDTIYQTTDFSGIRNISFMVKRIRINTTADEKDPTNPFRFPNIGVEKFLELNSEQNHDDYCLAYVFTDRDFDDGVLGLAWVGAPSGSSGGICEKSKLYSDGKKKSLNTGIITVQNYGSHVPPKVSHITFAHEVGHNFGSPHDSGTECTPGESKNLGQKENGNYIMYARATSGDKLNNNKFSLCSIRNISQVLEKKRNNCFVESGQPICGNGMVEQGEECDCGYSDQCKDECCYDANQPEGKKCKLKPGKQCSPSQGPCCTAHCAFKSKTEKCRDDSDCAKEGICNGITALCPASDPKPNFTDCNRHTQVCINGQCAGSICAKHGLAACTCASSDGKDDKELCHVCCMKKMEPSTCASTGSVQWNKYFLGRTITLQPGSPCNDFRGYCDVFMRCRLVDADGPLARLKKAIFSPELYENIAEWIVAYWWAVLLMGIALIMLMAGFIKICSVHTPSSNPKLPPPKPLPGTLKRRRPPQPIQQPQRQRPRESYQMGHMRR	overexpression of mutant ADAM10 with Ala or Lys substitutions of the three Glu residues or lacking the protease domain, effectively inhibited ephrin-A5 cleavage	
	full-length ADAM10 with lysine (3K) substitutions of Glu573, 578, 579 (protein) TTVAEKNTCQLYIQTDHLFFKYYGTREAVIAQISSHVKAIDTIYQTTDFSGIRNISFMVKRIRINTTADEKDPTNPFRFPNIGVEKFLELNSEQNHDDYCLAYVFTDRDFDDGVLGLAWVGAPSGSSGGICEKSKLYSDGKKKSLNTGIITVQNYGSHVPPKVSHITFAHEVGHNFGSPHDSGTECTPGESKNLGQKENGNYIMYARATSGDKLNNNKFSLCSIRNISQVLEKKRNNCFVESGQPICGNGMVEQGEECDCGYSDQCKDECCYDANQPEGKKCKLKPGKQCSPSQGPCCTAHCAFKSKTEKCRDDSDCAKEGICNGITALCPASDPKPNFTDCNRHTQVCINGQCAGSICKKHGLKKCTCASSDGKDDKELCHVCCMKKMEPSTCASTGSVQWNKYFLGRTITLQPGSPCNDFRGYCDVFMRCRLVDADGPLARLKKAIFSPELYENIAEWIVAYWWAVLLMGIALIMLMAGFIKICSVHTPSSNPKLPPPKPLPGTLKRRRPPQPIQQPQRQRPRESYQMGHMRR	overexpression of mutant ADAM10 with Ala or Lys substitutions of the three Glu residues or lacking the protease domain, effectively inhibited ephrin-A5 cleavage	
does not bind	ADAM10D+C[EEE-A]: ADAM10D+C with Glu573, Glu578 and Glu579 mutated to alanines (protein) SGQPICGNGMVEQGEECDCGYSDQCKDECCYDANQPEGKKCKLKPGKQCSPSQGPCCTAHCAFKSKTEKCRDDSDCAKEGICNGITALCPASDPKPNFTDCNRHTQVCINGQCAGSICAKHGLAACTCASSDGKDDKELCHVCCMKKMEPSTCASTGSVQWNKYFLGRTITLQPGSPCNDFRGYCDVFMRCR		
retains wild-type binding affinity	ADAM10D+C[RDD-A]: ADAM10D+C with Ala substitutions of Arg525, Asp526, Asp527 (protein) SGQPICGNGMVEQGEECDCGYSDQCKDECCYDANQPEGKKCKLKPGKQCSPSQGPCCTAHCAFKSKTEKCAAASDCAKEGICNGITALCPASDPKPNFTDCNRHTQVCINGQCAGSICEKHGLEECTCASSDGKDDKELCHVCCMKKMEPSTCASTGSVQWNKYFLGRTITLQPGSPCNDFRGYCDVFMRCR		
